Test results from patent US10808017B2, “Ubiquitin variants and uses therof as 53BP1 inhibitors” (The Governing Council of the University of Toronto, priority 2016, dated 2020).

Tests used:
[1] = biological target: T1, RPL24 (Homo sapiens, UniProt P83731); assay: Flag IP-MS of i53/i53-DM baits: prey RPL24; format: binding; details: 293T Flp-In/T-Rex extracts, LC-MS/MS, one column per replicate IP
T1 construct: endogenous in cells; host or cells: HEK293 Flp-In/T-REx
Method: (§1) Following immunoprecipitation of Flag-tagged i53 and i-53-DM from HEK293 Flp-In/T-REx cells, peptides were identified using LC-MS/MS. Proteins were digested in solution with trypsin (Sigma, T7575-1KT) and dried to completeness. For LC-MS/MS analysis, peptides were reconstituted in 5% formic acid and loaded onto a 12-15 cm fused silica column with pulled tip packed in-house with 3.5 μm Zorbax C18 (Agilent Technologies, Calif., USA).
(§2) i53 and i53-DM precipitates were analyzed using an LTQ (Thermo Scientific) coupled to an Agilent 1100 Series HPLC (Agilent Technologies). Peptides were eluted from the column using a 90 min period cycle with a linear gradient from 0% to 40% ACN in 0.1% formic acid. Tandem MS spectra were acquired in a data-dependent mode for the top 5 (LTQ) most abundant ions using collision-induced dissociation. Acquired spectra were searched against the human Refseq_V53 database using Mascot (Matrix Science).
(§3) 293T Flp-In/T-Rex cell lines were generated that expressed Flag-tagged i53 or i53-DM under the control of a tetracycline-inducible promoter as previously described. Nine IP-MS experiments were analyzed (3 biological replicate IPs each for control i53- and i53-DM expressing cell lines). The interacting proteins were identified by MASCOT to identify high-confidence interactors for i53. […]

[2] = test system: MMEJ in U2OS EJ2-GFP cells; assay: EJ2-GFP reporter assay for MMEJ; format: cell-based; details: GFP-positive cells 48 h post-transfection, N=4
Method: FIG. 8 (Related to FIG. 3.) FIG. 8A, Immunoblots of whole cell lysates prepared from U2OS DR-GFP cells transfected with vectors expressing Flag-tagged i53, its DM mutant or an empty vector along with an I-SceI expression vector and probed with the indicated antibodies. FIG. 8B, U2OS DR-GFP cells were transfected with the vectors expressing Flag-tagged i53 or the DM mutant along with an I-SceI expression vector. Cells were treated either with DMSO (−) or 1 μM SCR7 (+). The percentage of GFP-positive cells was determined 48 h post-transfection for each condition and was normalized to the DM condition (mean±s.d., N=4). FIG. 8C, Control immunoblot of the experiment shown in (b). FIG. 8D, Immunoblots of whole cell lysates prepared from U2OS DR-GFP cells transfected with the indicated siRNAs along with an I-Scel expression vector and probed with the indicated antibodies. […] The percentage of GFP-positive cells was determined 48 h post-transfection for each condition and was normalized to the empty vector condition (mean±s.d., N=4). […]
The direct repeat (DR)-GFP assay to measure the frequency of HR and the strand annealing EJ2-GFP assay to measure the frequency of MMEJ were performed as previously described. […] 48 h post-plasmid transfection, the cells were trypsinized and the percentage of GFP-expressing cells was analyzed using the BD FACSCalibur flow cytometer.

[3] = biological target: T2, WDR96 (Homo sapiens, UniProt Q8NDM7); assay: Flag IP-MS of i53/i53-DM baits: prey WDR96; format: binding; details: 293T Flp-In/T-Rex extracts, LC-MS/MS, one column per replicate IP
T2 construct: Following immunoprecipitation of Flag-tagged i53 and i-53-DM from HEK293 Flp-In/T-REx cells, peptides were identified using LC-MS/MS; endogenous in cells; host or cells: HEK293 Flp-In/T-REx cells
Method: as §1, §2, §3

[4] = biological target: T3, RPL8 (Homo sapiens, UniProt P62917); assay: Flag IP-MS of i53/i53-DM baits: prey RPL8; format: binding; details: 293T Flp-In/T-Rex extracts, LC-MS/MS, one column per replicate IP
T3 construct: Following immunoprecipitation of Flag-tagged i53 and i-53-DM from HEK293 Flp-In/T-REx cells, peptides were identified using LC-MS/MS; endogenous in cells; host or cells: HEK293 Flp-In/T-REx cells
Method: as §1, §2, §3

[5] = biological target: T4, 53BP1 recruitment to DSB sites in U2OS cells (Homo sapiens, UniProt Q12888); assay: Ionizing radiation focus formation, 53BP1 (immunofluorescence); format: cell-based; details: transfected U2OS cells, 10 Gy X-rays, 1 h post-irradiation
T4 construct: endogenous in cells; host or cells: U2OS
Method: FIG. 3. The i53 protein inhibits 53BP1. FIG. 3A-B, U2OS cells were transfected with vectors expressing i53, its 53BP1-binding deficient mutant (DM) or an empty vector (EV) control. Cells were then X-irradiated with a 10 Gy dose and processed for immunofluorescence with the indicated antibodies 1 h post-irradiation (IR). DAPI staining (not shown) was used to delineate the outline (dashed lines) of the cell nuclei. The region in the magnified inset is indicated with a square. Quantitation of the experiment is shown in panel (a) and data is indicated as the mean±s.e.m (N=3), whereas in (b) representative micrographs are shown. Arrowheads indicate Flag-positive cells. FIG. 3C, Parental or 53BP1ΔU2OS cells transfected with vectors expressing i53, the DM mutant or an empty vector (EV) control were irradiated (10 Gy) 1 h before being processed for immunofluorescence. Cell cycle stage was assessed by Cyclin A staining. The data is presented as the mean±s.e.m.; N=3. FIG. 3D, Immunoprecipitation (IP) of Flag-tagged proteins from extracts prepared from 293T cells transfected with vectors expressing Flag-i53 or the i53-DM mutant. Proteins were separated by SDS-PAGE and immunoblotted (IB) for Flag and 53BP1. […]

T4 sequence (Q12888 whole entry): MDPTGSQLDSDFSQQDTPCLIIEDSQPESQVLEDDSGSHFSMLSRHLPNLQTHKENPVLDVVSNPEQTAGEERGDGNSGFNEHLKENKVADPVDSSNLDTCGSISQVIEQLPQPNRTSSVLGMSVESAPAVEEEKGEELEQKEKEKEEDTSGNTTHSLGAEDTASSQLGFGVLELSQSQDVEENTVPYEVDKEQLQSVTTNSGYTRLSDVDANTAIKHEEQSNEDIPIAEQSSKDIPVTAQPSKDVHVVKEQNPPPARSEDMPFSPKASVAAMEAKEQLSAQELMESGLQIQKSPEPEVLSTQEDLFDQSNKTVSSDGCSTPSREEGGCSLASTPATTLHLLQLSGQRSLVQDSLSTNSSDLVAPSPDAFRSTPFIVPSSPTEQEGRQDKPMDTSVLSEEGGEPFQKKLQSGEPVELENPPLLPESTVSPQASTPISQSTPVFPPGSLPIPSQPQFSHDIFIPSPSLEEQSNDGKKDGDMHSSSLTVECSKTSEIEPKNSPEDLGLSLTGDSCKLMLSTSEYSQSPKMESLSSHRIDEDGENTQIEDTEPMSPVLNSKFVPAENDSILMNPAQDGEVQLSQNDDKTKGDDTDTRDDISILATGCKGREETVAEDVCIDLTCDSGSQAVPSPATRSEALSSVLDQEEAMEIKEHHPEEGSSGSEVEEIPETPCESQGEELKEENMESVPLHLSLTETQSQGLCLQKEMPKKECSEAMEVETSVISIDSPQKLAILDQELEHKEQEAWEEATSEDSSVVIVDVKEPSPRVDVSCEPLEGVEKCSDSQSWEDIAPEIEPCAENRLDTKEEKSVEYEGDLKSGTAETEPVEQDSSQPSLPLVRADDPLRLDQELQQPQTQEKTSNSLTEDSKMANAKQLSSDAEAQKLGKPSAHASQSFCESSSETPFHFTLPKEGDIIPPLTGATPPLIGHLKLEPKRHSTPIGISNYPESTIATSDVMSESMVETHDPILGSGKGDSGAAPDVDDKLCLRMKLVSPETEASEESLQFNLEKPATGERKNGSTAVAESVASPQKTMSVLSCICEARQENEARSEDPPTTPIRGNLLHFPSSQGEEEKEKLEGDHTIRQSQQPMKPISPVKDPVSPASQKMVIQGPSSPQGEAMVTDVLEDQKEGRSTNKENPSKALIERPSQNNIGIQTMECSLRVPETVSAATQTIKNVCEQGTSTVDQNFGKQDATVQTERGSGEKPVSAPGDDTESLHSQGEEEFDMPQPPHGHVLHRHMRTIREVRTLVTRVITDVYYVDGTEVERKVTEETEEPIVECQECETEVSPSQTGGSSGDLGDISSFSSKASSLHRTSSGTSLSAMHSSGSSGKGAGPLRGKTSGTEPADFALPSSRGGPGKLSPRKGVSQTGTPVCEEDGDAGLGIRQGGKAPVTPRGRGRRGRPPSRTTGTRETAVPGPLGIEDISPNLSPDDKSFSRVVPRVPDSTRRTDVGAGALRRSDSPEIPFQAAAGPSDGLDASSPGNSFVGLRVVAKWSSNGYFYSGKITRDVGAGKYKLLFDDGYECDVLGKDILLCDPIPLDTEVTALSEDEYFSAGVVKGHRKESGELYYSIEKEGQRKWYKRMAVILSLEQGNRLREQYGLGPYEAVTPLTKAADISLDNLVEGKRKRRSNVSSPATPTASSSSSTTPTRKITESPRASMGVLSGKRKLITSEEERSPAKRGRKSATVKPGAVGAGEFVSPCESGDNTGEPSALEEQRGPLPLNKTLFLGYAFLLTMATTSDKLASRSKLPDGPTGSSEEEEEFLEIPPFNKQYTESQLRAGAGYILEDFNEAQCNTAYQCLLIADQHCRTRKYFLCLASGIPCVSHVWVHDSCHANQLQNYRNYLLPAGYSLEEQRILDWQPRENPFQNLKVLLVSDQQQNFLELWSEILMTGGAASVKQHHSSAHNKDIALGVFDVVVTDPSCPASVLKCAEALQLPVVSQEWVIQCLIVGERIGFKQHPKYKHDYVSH
T2 sequence (Q8NDM7 whole entry): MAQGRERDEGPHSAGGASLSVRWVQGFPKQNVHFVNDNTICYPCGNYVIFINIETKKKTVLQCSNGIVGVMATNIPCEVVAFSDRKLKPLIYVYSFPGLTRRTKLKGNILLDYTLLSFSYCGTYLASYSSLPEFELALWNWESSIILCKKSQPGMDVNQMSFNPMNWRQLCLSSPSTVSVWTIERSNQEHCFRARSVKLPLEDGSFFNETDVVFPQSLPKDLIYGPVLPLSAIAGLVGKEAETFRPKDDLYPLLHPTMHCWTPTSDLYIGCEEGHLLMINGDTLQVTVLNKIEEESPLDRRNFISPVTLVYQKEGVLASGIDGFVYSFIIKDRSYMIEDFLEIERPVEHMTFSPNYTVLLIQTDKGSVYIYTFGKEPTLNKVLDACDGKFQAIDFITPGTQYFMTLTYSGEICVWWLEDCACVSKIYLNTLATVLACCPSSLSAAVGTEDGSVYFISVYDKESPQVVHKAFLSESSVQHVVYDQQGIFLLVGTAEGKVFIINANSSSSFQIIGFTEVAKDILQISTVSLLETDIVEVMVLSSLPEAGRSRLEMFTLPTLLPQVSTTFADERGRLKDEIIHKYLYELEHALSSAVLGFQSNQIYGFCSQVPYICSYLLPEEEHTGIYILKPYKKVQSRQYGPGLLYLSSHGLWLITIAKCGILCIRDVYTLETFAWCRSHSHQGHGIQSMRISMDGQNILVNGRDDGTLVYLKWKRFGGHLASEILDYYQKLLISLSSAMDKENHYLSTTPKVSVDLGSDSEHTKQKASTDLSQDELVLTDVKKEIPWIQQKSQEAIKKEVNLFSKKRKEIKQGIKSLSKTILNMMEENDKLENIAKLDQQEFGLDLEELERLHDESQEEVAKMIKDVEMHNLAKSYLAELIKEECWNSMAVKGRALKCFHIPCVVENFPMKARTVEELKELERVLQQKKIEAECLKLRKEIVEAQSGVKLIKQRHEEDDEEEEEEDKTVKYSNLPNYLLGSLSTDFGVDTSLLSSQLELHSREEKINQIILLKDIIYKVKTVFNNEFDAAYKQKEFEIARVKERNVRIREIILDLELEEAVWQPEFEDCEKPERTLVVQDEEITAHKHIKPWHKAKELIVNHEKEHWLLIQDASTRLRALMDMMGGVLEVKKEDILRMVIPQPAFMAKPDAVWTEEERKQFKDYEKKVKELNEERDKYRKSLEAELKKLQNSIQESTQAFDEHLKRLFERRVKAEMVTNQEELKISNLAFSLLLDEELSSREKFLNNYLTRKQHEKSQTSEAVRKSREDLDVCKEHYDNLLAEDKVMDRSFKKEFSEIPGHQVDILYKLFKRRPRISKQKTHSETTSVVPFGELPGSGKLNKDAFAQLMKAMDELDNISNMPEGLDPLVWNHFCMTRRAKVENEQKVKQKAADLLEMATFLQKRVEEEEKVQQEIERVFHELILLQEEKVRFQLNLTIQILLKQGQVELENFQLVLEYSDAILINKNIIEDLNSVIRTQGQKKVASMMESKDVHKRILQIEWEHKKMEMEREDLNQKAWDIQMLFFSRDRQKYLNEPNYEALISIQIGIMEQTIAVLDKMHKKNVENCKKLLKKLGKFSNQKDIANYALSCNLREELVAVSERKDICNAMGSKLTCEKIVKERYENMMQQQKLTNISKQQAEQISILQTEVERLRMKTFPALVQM

Substance	Total peptides, RPL24 [1]	Increase in MMEJ over the empty vector [2]	Total peptides, WDR96 [3]	Total peptides, RPL8 [4]	53BP1 recruitment to DSB sites (ionizing radiation focus formation) [5]
i53-DM: 53BP1-binding deficient mutant of i53 (P69L, L70V)	5	1.3+/−0.1 fold	4	5	–
i53: UbvG08 with C-terminal di-glycine removed and I44A mutation; genetically encoded inhibitor of 53BP1	5	1.4+/−0.15 fold	–	–	strongly suppressed 53BP1 recruitment to DSB sites
